Experimental data taken from US20230121197A1, “ANTIBODIES SPECIFICALLY BINDING THE CARBOXYMETHYLATED CATALYTIC SUBUNIT OF PROTEIN PHOSPHATASE 2A” (Medizinische Universität Wien, priority 2020, published 2023).

T1: C-terminal PP2Ac peptide Y307F, CGEPHVTRRTPDFFL (15-mer)
T1 construct: Non-carboxymethylated; Phe in place of Tyr307; Crosslinked to BSA in the Western blot; free or linked to BSA in the ELISA
T1 peptide: CGEPHVTRRTPDFFL


Legend:
[1] = target: T1, C-terminal PP2Ac peptide Y307F, …; assay: Western blot of 100 ng BSA crosslinked with peptide, detected through 16B12
Experimental: 100 ng of BSA crosslinked with peptides (L309: […] (SEQ ID NO:49), Y307F: […] (SEQ ID NO.50), pY307: […]pYFL (SEQ ID NO:51) or meL309: […]-CH₃) (SEQ ID NO:49) was separated by 10% SDS-PAGE and transferred to nitrocellulose membrane (0.2 μm, GE Healthcare). […] The membranes were blocked in 3% non-fatty dry milk (NFDM) in TBS-Tween for 1 h at RT and incubated with single clone hybridoma cell culture supernatant, clone 7C10-C5 diluted 1:100 in 0.5% NFDM in TBS-T (7C10 X63), recombinant single chain variable fragment of antibody 7C10-C5, undiluted (7C10 scFvs), recombinant bivalent single chain variable fragment 7C10-C5, undiluted (7C10 bi-scFvs) or single clone hybridoma cell culture supernatant, clone 1D7 (binding to non-carboxymethylated PP2Ac) 1:100 in 0.5% NFDM in TBS-T o/n at 4° C. After washing 3×5 min in TBS-T, blots incubated with recombinant antibodies were incubated with mouse anti-HA monoclonal antibody 16B12 (recognizing the hemagglutinin (HA) tag on the recombinant antibody), 1:10000 in 0.5% NFDM in TBS-T 2 h at room temperature. After washing 3×5 min in TBS-T, incubation with anti-mouse-HRP coupled secondary antibody for 1 h at RT and 3×10 min washes in TBS-T was performed. ECL was performed with GE Healthcare ECL reagents (RPN2106) mixed 1:3 with Clarity™ Western ECL Substrate, 500 ml #1705061 (Biorad). Signals were detected by exposure of X-ray films. […]

[2] = target: T2, C-terminal PP2Ac peptides L309, Y307F, pY307, meL309 (Homo sapiens, UniProt P67775); assay: ELISA with CGEPHVTRRTPDYFL peptides free or linked to BSA (scFv and recombinant 7C10-C5); assay type: binding; conditions: peptides free or linked to BSA
T2 construct: coated with C-terminal PP2Ac peptides either free or linked to BSA; BSA (carrier)
Experimental: Nunc Medisorp 96-well ELISA flat-bottom plates were coated with C-terminal PP2Ac peptides either free or linked to BSA. Specifically, the peptides were: unmodified L309 (CGEPHVTRRTPDYFL) (SEQ ID NO:49), Y307F (CGEPHVTRRTPDFFL) (SEQ ID NO:50), pY307 (CGEPHVTRRTPDpYFL) (SEQ ID NO:51) or carboxymethylated meL309 (CGEPHVTRRTPDYFL-CH3) (SEQ ID NO:49), on the ELISA plate at 8 μg/ml in TBS (free) or 1 μg/ml in TBS (linked to BSA) at 4° C. overnight. After washing twice with TBS, the wells were incubated with 2% BSA in TBS for 1 h at RT. After washing once with TBS, the wells were incubated with single clone hybridoma cell culture supernatant, clone 7C10-C5 1:50 (7C10 X63), recombinant single chain variable fragment of antibody 7C10-C5, undiluted (7C10 scFvs), or recombinant bivalent single chain variable fragment of antibody 7C10-C5, undiluted (7C10 bi-scFvs). After washing 3× with TBS, wells incubated with recombinant antibodies were incubated with monoclonal antibody 16B12, 1:10000 (recognizing the hemagglutinin tag on the recombinant antibody) in 1% BSA TBS 1 h at room temperature. After washing 3× in TBS, incubation with anti-mouse-HRP coupled secondary antibody for 1 h at RT was performed. Bound antibodies were detected by colorimetric reaction with 3,3′,5,5′-Tetramethylbenzidine as substrate, and absorbance was measured at 450 nm. Values were normalized to meL309 which was arbitrarily set to 1. Average and standard deviation of N=3 experiments are shown.
Nunc Medisorp 96-well ELISA flat-bottom plates were coated with peptides either free or linked to BSA, L309 (CGEPHVTRRTPDYFL) (SEQ ID NO:49) or meL309 (CGEPHVTRRTPDYFL-CH3) (SEQ ID NO:49), on the ELISA plate at 0.5 μg/ml in TBS (free) or […] in TBS (linked to BSA) at 4° C. over night. After washing twice with TBS, the wells were incubated with 2% BSA in TBS for 1 h at RT. After washing once with TBS, the wells were incubated with single clone hybridoma cell culture supernatant, clone 7C10-C5 1:50 (7C10 X63), or recombinant antibody 7C10-C5 undiluted (rec 7C10). After washing 3× with TBS, incubation with anti-mouse-HRP coupled secondary antibody for 1 h at RT was performed. Bound antibodies were detected by colorimetric reaction with 3,3′,5,5′-Tetramethylbenzidine as substrate, and absorbance was measured at 450 nm. Values were normalized to meL309 incubated with 7C10 X63, which was arbitrarily set to 1. Average and standard deviation of N=3 experiments are shown (FIG. 30).

[3] = target: T3, PP2Ac (Homo sapiens, UniProt P67775); assay: Western blot of human cell lysates (HAP1, HEK293; NaOH treatment, Lcmt-1-KO); assay type: binding; conditions: HAP1, HEK293
T3 construct: the carboxy-terminal methyl group was chemically removed from cellular PP2Ac; endogenous in cells; host or cells: HAP1 wild type, HAP1 Lcmt-1-KO, HEK293Trex / HEK293T
T3 sequence (P67775 whole entry): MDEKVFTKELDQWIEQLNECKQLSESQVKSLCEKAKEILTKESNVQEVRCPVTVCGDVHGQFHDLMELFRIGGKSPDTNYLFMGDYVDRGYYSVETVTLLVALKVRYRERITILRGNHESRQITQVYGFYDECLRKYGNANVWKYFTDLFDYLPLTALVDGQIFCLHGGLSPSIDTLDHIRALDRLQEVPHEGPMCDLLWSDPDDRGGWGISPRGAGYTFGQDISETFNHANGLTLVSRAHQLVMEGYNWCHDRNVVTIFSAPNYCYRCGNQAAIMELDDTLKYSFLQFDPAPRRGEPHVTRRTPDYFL
Experimental: NIH3T3 mouse fibroblasts and human embryonic kidney cells (HEK293Trex) were grown in DMEM+10% FCS+2 mM L-glutamine (Sigma, G2150)+100 units/ml Penicillin/0.1 mg/ml Streptomycin at 37° C. in a 7.5% CO2 atmosphere. HAP1 wild type and HAP1 Lcmt-1-KO cells (Leucine carboxyl methyltransferase 1 deleted by CRISPR/Cas9; Horizon Discovery, #C631 and #HZGHC004373c001) were grown in Iscove's Modified Dulbecco's Medium (IMDM, Thermo Fischer Scientific, Life Technologies #12440053) supplemented with 10% (v/v) Fetal Calf Serum (FCS) (Sigma #F7524, lot 104M3333), GlutaMAX™ (Thermo Fischer Scientific, Life Technologies #35050-38, lot 1895829), and Penicillin-Streptomycin solution (Sigma, #P4333, lot 125M4781V) in a 5% CO2 atmosphere. Of note, HAP1 is a near-haploid human cell line that was derived from the chronic myelogenous leukemia (CML) cell line KBM-7 (Carette (2011), Nature 477(7364):340-3). For cell lysis, exponentially growing cells were washed once with ice-cold PBS, once with ice-cold IP-Wash buffer (20 mmol/l Tris pH 8.0, 135 mmol/l NaCl, 10% glycerol) and lysed on the petri-dish in ice-cold IP-Lyse buffer (18 mmol/l Tris pH 8.0, 122 mmol/l NaCl, 9% glycerol, 1% w/v NP-40) for 20 min at 4° C. rocking. Lysed cells were transferred to Eppendorf 1.5 ml tubes and centrifuged for 15 min at 14,000 rpm at 4° C. in a Beckman & Coulter Microfuge 18 centrifuge. The protein concentration was determined with the Protein Assay Dye Reagent (Biorad, 500-0006) and measurement of absorbance at 595 nm in a Hitachi U-2000 spectrophotometer. […]
To test these antibodies in the western blot analysis with methylated and non-methylated full-length PP2Ac the methyl group was chemically removed from cellular PP2Ac by treating lysates of the human cell line, HAP1, with NaOH, as described in Example 2. […] In agreement with the results of the NaOH experiments, […] of PP2Ac were detected in HAP1 cells that lack the PP2A methyltransferase LCMT-1 indicating the preference of these antibodies for non-methylated PP2Ac (FIG. 22). […]

Molecule | binding result [1] | recognition of meL309 versus non-carboxymethylated peptides [2] | detection of PP2Ac in untreated versus NaOH treated cell lysates [3]
recombinant monovalent single chain variable fragment (scFv) of antibody 7C10-C5 (scFv, VL - 19 aa linker - VH - 8 aa of CH1 - 6xHis - HA tag; secreted into HEK293T supernatant, used undiluted; also called 7C10 scFvs; monovalent 7C10-C5 scFv) scFv: DVLMTQTPLSLPVSLGDQASISCRSSQSIVHSNGNTYLEWYLQKPGQSPKLLIYKVSNRFSGVPDRFSGSGSGTDFTLKINRVEAEDLGVYYCFQGSHVPWTFGGGTKLEIKSSGGGGSGGGGGGSSRSSLDVQLQESGPGLVKPSQSLSLTCSVTGYSITSGYYWNWIRQFPGNKLEWMGYISYDGSNNYNPSLKNRISITRDTSKNQFFLKLNSVTTEDTATYYCAGRFAYWGQGTLVTVSAAKTTPPSVTSGQAGQHHHHHHGAYPYDVPDYAS | no binding (tested: undiluted supernatant) | – | –
recombinant 7C10-C5: recombinant 7C10-C5 antibody with mIgCK light chain and mIgG2a heavy chain (SEQ ID NO:123, 125) (protein, Amino acid sequence of the recombinant 7C10-C5 light chain; Amino acid sequence of the recombinant 7C10-C5 heavy chain) light: MDMRVPAQLLGLLLLWLSGARCDVLMTQTPLSLPVSLGDQASISCRSSQSIVHSNGNTYLEWYLQKPGQSPKLLIYKVSNRFSGVPDRFSGSGSGTDFTLKINRVEAEDLGVYYCFQGSHVPWTFGGGTKLEIKADAAPTVSIFPPSSEQLTSGGASVVCFLNNFYPKDINVKWKIDGSERQNGVLNSWTDQDSKDSTYSMSSTLTLTKDEYERHNSYTCEATHKTSTSPIVKSFNRNEC heavy: MYRMQLLSCIALSLALVTNSDVQLQESGPGLVKPSQSLSLTCSVTGYSITSGYYWNWIRQFPGNKLEWMGYISYDGSNNYNPSLKNRISITRDTSKNQFFLKLNSVTTEDTATYYCAGRFAYWGQGTLVTVSAAKTTAPSVYPLAPVCGDTTGSSVTLGCLVKGYFPEPVTLTWNSGSLSSGVHTFPAVLQSDLYTLSSSVTVTSSTWPSQSITCNVAHPASSTKVDKKIEPRGPTIKPCPPCKCPAPNLLGGPSVFIFPPKIKDVLMISLSPIVTCVVVDVSEDDPDVQISWFVNNVEVHTAQTQTHREDYNSTLRVVSALPIQHQDWMSGKEFKCKVNNKDLPAPIERTISKPKGSVRAPQVYVLPPPEEEMTKKQVTLTCMVTDFMPEDIYVEWTNNGKTELNYKNTEPVLDSDGSYFMYSKLRVEKKNWVERNSYSCSVVHEGLHNHHTTKSFSRTPGK | – | Specific for the α-Carboxymethylated PP2Ac | only detected methylated PP2Ac in the untreated cell lysates but not in the NaOH treated lysates
recombinant bivalent single chain variable fragment (scFv) of antibody 7C10-C5 (scFv, Two VL-linker-VH units joined by a (Gly-Ser)x15 linker, C-terminal 6xHis and HA tag; HEK293T supernatant, undiluted; Signal peptide (residues 1-22, before the first VL) left out by counting; also called 7C10 bi-scFvs; bivalent 7C10-C5 scFv) scFv: DVLMTQTPLSLPVSLGDQASISCRSSQSIVHSNGNTYLEWYLQKPGQSPKLLIYKVSNRFSGVPDRFSGSGSGTDFTLKINRVEAEDLGVYYCFQGSHVPWTFGGGTKLEIKSSGGGGSGGGGGGSSRSSLDVQLQESGPGLVKPSQSLSLTCSVTGYSITSGYYWNWIRQFPGNKLEWMGYISYDGSNNYNPSLKNRISITRDTSKNQFFLKLNSVTTEDTATYYCAGRFAYWGQGTLVTVSAAKTTPPSVGSGSGSGSGSGSGSGSGSGSGSGSGSGSGSDVLMTQTPLSLPVSLGDQASISCRSSQSIVHSNGNTYLEWYLQKPGQSPKLLIYKVSNRFSGVPDRFSGSGSGTDFTLKINRVEAEDLGVYYCFQGSHVPWTFGGGTKLEIKSSGGGGSGGGGGGSSRSSLDVQLQESGPGLVKPSQSLSLTCSVTGYSITSGYYWNWIRQFPGNKLEWMGYISYDGSNNYNPSLKNRISITRDTSKNQFFLKLNSVTTEDTATYYCAGRFAYWGQGTLVTVSAAKTTPPSVTSGQAGQHHHHHHGAYPYDVPDYAS | no binding (tested: undiluted supernatant) | – | –
